From the supplement of paper PMC7877785
± gives the uncertainty stated by the source.

Test: self-splicing fitness, log relative to wild type (ln ratio); higher = more splicing; Tetrahymena group I intron in knt gene, E. coli kanamycin selection, DiMSum; sequences stand for … in CUCUCU…GGAGGGAAAAGUUAUCAGGCAUGCACCUGGUAGCUAGUCUUUAAACCAAUAGAUUGCAUCGGUUUAAAAGGCAAGACCGUCAAAUUGCGGGAAAGGGGUCAACAGCCGUUCAGUACCAAGUCUCAGGGGAAACUUUGAGAUGGCCUUGCAAAGGGUAUGGUAAUAAGCUGACGGACAUGGUCCUAACCACGCAGCCAAGUCCUAAGUCAACAGAUCUUCUGUUGAUAUGGAUGCAGUUCACAGACUAAAUGUCGGUCGGGGAAGAUGUAUUCUUCUCAUAAGAUAUAGUCGGACCUCUCCUUAAUGGGAGCUAGCGGAUGAAGUGAUGCAACACUGGAGCCGCUGGGAACUAAUUUGUAUGCGAAAGUAUAUUGAUUAGUUUUGGAGUACUCGUGGUCG
Procedure, shortened: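 Pooled colonies went to amplicon sequencing on an Illumina HiSeq 2500 after six replicate transformations. The plates were LB agar with 100 μg/mL carbenicillin, 50 μM IPTG and 0.2% rhamnose, with or without 25 μg/mL kanamycin, incubated overnight at 37°C or 30°C. The E. coli BL21(DE3) library had all eight P1ex-region intron nucleotides randomised, the intron placed in the knt kanamycin-resistance gene on pET-22b(+). DiMSum fitness is the error-weighted combination of replicate fold changes, kanamycin against none, normalised to wild type.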

| Sequence | self-splicing fitness (ln) (37 °C) | self-splicing fitness (ln) (30 °C) |
| --- | --- | --- |
| CGCCAGCAAUAUUACGAACU | 0.274 ± 0.25 |  |
| CGCCAGCAAUAUUACGACGC | -2.97 ± 0.35 | -3.21 ± 0.2 |
| CGCCAGCAAUAUUACGCAAA | -2.64 ± 0.26 | -2.31 ± 0.19 |
| CGCCAGCAAUAUUACGCACC | -2.33 ± 0.35 | -2.37 ± 0.17 |
| CGCCAGCAAUAUUACGCAUA | -1.86 ± 0.2 | -3.34 ± 0.24 |
| CGCCAGCAAUAUUACGCCUA | -1.98 ± 0.32 | -3 ± 0.36 |
| CGCCAGCAAUAUUACGCGCA | -0.948 ± 0.13 | -1.98 ± 0.13 |
| CGCCAGCAAUAUUACGCGCG | -3.7 ± 0.27 | -3.57 ± 0.16 |
| CGCCAGCAAUAUUACGCUAC | -2.58 ± 0.28 | -3.74 ± 0.36 |
| CGCCAGCAAUAUUACGCUCA | 0.163 ± 0.083 | -0.656 ± 0.073 |
| CGCCAGCAAUAUUACGCUUA | -1.87 ± 0.17 | -3.1 ± 0.21 |
| CGCCAGCAAUAUUACGGCAG | -1.02 ± 0.12 | -2.3 ± 0.11 |
| CGCCAGCAAUAUUACGGCUG | -1.67 ± 0.19 | -4.51 ± 0.36 |
| CGCCAGCAAUAUUACGGUCG | -2.5 ± 0.2 | -4.17 ± 0.19 |
| CGCCAGCAAUAUUACGGUUG | -1.78 ± 0.15 | -3.7 ± 0.17 |
| CGCCAGCAAUAUUACGUAAA | -1.46 ± 0.13 | -3.21 ± 0.19 |
| CGCCAGCAAUAUUACGUACA | -0.166 ± 0.17 | -2.74 ± 0.2 |
| CGCCAGCAAUAUUACGUAUA | -3.42 ± 0.23 | -4.14 ± 0.23 |
| CGCCAGCAAUAUUACGUCGU | -2.35 ± 0.16 | -3.29 ± 0.15 |
| CGCCAGCAAUAUUACGUGGG | -2.38 ± 0.19 | -3.79 ± 0.19 |

| Sequence | self-splicing fitness (ln) (37 °C) | self-splicing fitness (ln) (30 °C) |
| --- | --- | --- |
| CGCCAGCAAUAUUACGUGUA | -1.04 ± 0.072 | -3.04 ± 0.097 |
| CGCCAGCAAUAUUACGUUCU | -1.89 ± 0.17 | -3.88 ± 0.26 |
| CGCCAGCAAUAUUACGUUUA | -2.83 ± 0.17 | -3.18 ± 0.15 |
| CGCCAGCAAUAUUACGUUUU | -2.76 ± 0.16 | -3.8 ± 0.15 |
| CGCGAGCAAUAUUACGACUG | 0.0174 ± 0.17 | 0.265 ± 0.17 |
| CGCGAGCAAUAUUACGAGCG | -2.37 ± 0.3 | -3.55 ± 0.28 |
| CGCGAGCAAUAUUACGCCGG | -1.58 ± 0.44 | -2.19 ± 0.25 |
| CGCGAGCAAUAUUACGCUGC |  | -2.91 ± 0.28 |
| CGCGAGCAAUAUUACGCUGU | -2.74 ± 0.31 | -2.6 ± 0.16 |
| CGCGAGCAAUAUUACGGAGC | -1.99 ± 0.26 |  |
| CGCGAGCAAUAUUACGGCGC | -2.88 ± 0.31 | -2.93 ± 0.23 |
| CGCGAGCAAUAUUACGGCGG | -0.636 ± 0.17 | -1.64 ± 0.12 |
| CGCGAGCAAUAUUACGGCUU | -2.54 ± 0.26 | -3.01 ± 0.42 |
| CGCGAGCAAUAUUACGGGGC |  | -3.26 ± 0.26 |
| CGCGAGCAAUAUUACGGUCU | -0.953 ± 0.15 | -3.82 ± 0.2 |
| CGCGAGCAAUAUUACGGUGA | -1.7 ± 0.11 | -2.81 ± 0.14 |
| CGCGAGCAAUAUUACGUAUC | -3.93 ± 0.36 | -3.93 ± 0.34 |
| CGCGAGCAAUAUUACGUGUA | -1.48 ± 0.11 | -3.72 ± 0.18 |
| CGCGAGCAAUAUUACGUUGC |  | -3.68 ± 0.3 |
| CGCGAGCAAUAUUACGUUUG | -1.91 ± 0.18 | -4.03 ± 0.21 |
